# Data as given in patent publication US20180282719A1 (published 2018).
# Where a chain is given by its changes, count along the chain named.
# T1: recombinant soluble human IL-6 receptor (SR344) (human, UniProt P08887 20-344, biotinylated (sites not given) where immobilized via streptavidin or used in phage ELISA)
# T1 construct: also called soluble IL-6 receptor; membrane-type IL-6 receptor (when biotinylated and immobilized on the chip)
# T1 sequence (looked up): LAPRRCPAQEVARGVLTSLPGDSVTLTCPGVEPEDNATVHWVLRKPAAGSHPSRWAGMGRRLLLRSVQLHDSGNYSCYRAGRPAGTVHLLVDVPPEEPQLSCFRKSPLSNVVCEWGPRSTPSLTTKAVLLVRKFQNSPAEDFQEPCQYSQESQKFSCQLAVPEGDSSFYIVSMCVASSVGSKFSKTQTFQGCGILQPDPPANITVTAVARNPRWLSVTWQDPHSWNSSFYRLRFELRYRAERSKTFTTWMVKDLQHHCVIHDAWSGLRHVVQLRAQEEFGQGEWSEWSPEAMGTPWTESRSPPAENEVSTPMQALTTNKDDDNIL
# B1: H54/L28-IgG1 (antibody, V domains shown)
# VH: QVQLQESGPGLVKPSETLSLTCAVSGYSISDDQAWSWVRQPPGEGLEWIGYISYSGITNYNPSLKGRVTISRDTSKNQFSLKLSSVTAADTAAYYCARSLARTTAMDYWGEGTLVTVSS
# VL: DIQMTQSPSSLSASVGDSVTITCQASQDISSYLNWYQQKPGKAPELLIYYGSELHSGVPSRFSGSGSGTDFTFTISSLEAEDAATYYCQQGNSLPYTFGQGTKVEIE
# notes: IgG1
# B2: Fv3-M73 (antibody)
# heavy: QVQLQESGPGLVKPSETLSLTCAVSGHSISHDHAWSWVRQPPGEGLEWIGFISYSGITNYNPTLQGRVTISRDNSKNTLYLQMNSLRAEDTAVYYCARSLARTTAMDYWGEGTLVTVSSASTKGPSVFPLAPSSKSTSGGTAALGCLVKDYFPEPVTVSWNSGALTSGVHTFPAVLQSSGLYSLSSVVTVPSSNFGTQTYTCNVDHKPSNTKVDKTVERKSCVECPPCPAPPVAGPSVFLFPPKPKDTLMISRTPEVTCVVVDVSQEDPEVQFNWYVDGVEVHNAKTKPREEQFNSTFRVVSVLTVVHQDWLNGKEYKCKVSNKGLPAPIEKTISKTKGQPREPQVYTLPPSQEEMTKNQVSLTCLVKGFYPSDIAVEWESNGQPENNYKTTPPMLDSDGSFFLYSKLTVDKSRWQEGNVFSCSVMHEALHAHYTQKSLSLSP
# light: DIQMTQSPSSLSASVGDSVTITCQASRDISSHLNWYQQKPGKAPELLIYYGSHLLSGVPSRFSGSGSGTDFTFTISSLEAEDAATYYCGQGNRLPYTFGQGTKVEIERTVAAPSVFIFPPSDEQLKSGTASVVCLLNNFYPREAKVQWKVDNALQSGNSQESVTEQDSKDSTYSLSSTLTLSKADYEKHKVYACEVTHQGLSSPVTKSFNRGEC
# B3: Fv1-M71 (antibody, human IgG2, kappa)
# heavy: QVQLQESGPGLVKPSETLSLTCAVSGYSISHDHAWSWVRQPPGEGLEWIGHISYSGITNYNPHLQDRVTISRDTSKNQFSLKLSSVTAADTAVYYCARFLARITAHDHWGEGTLVTVSSASTKGPSVFPLAPCSRSTSESTAALGCLVKDYFPEPVTVSWNSGALTSGVHTFPAVLQSSGLYSLSSVVTVPSSNFGTQTYTCNVDHKPSNTKVDKTVERKCCVECPPCPAPPVAGPSVFLFPPKPKDTLMISRTPEVTCVVVDVSHEDPEVQFNWYVDGVEVHNAKTKPREEQFNSTFRVVSVLTVVHQDWLNGKEYKCKVSNKGLPAPIEKTISKTKGQPREPQVYTLPPSREEMTKNQVSLTCLVKGFYPSDIAVEWESNGQPENNYKTTPPMLDSDGSFFLYSKLTVDKSRWQQGNVFSCSVMHEALHAHYTQKSLSLSPGK
# light: B2 light with L55E
# B4: Fv3-M71 (antibody, human IgG2, kappa)
# heavy: QVQLQESGPGLVKPSETLSLTCAVSGHSISHDHAWSWVRQPPGEGLEWIGFISYSGITNYNPTLQGRVTISRDNSKNTLYLQMNSLRAEDTAVYYCARSLARTTAMDYWGEGTLVTVSSASTKGPSVFPLAPCSRSTSESTAALGCLVKDYFPEPVTVSWNSGALTSGVHTFPAVLQSSGLYSLSSVVTVPSSNFGTQTYTCNVDHKPSNTKVDKTVERKCCVECPPCPAPPVAGPSVFLFPPKPKDTLMISRTPEVTCVVVDVSHEDPEVQFNWYVDGVEVHNAKTKPREEQFNSTFRVVSVLTVVHQDWLNGKEYKCKVSNKGLPAPIEKTISKTKGQPREPQVYTLPPSREEMTKNQVSLTCLVKGFYPSDIAVEWESNGQPENNYKTTPPMLDSDGSFFLYSKLTVDKSRWQQGNVFSCSVMHEALHAHYTQKSLSLSPGK
# light: B2 light
# B5: Fv1-M73 (antibody)
# heavy: QVQLQESGPGLVKPSETLSLTCAVSGYSISHDHAWSWVRQPPGEGLEWIGHISYSGITNYNPHLQDRVTISRDTSKNQFSLKLSSVTAADTAVYYCARFLARITAHDHWGEGTLVTVSSASTKGPSVFPLAPSSKSTSGGTAALGCLVKDYFPEPVTVSWNSGALTSGVHTFPAVLQSSGLYSLSSVVTVPSSNFGTQTYTCNVDHKPSNTKVDKTVERKSCVECPPCPAPPVAGPSVFLFPPKPKDTLMISRTPEVTCVVVDVSQEDPEVQFNWYVDGVEVHNAKTKPREEQFNSTFRVVSVLTVVHQDWLNGKEYKCKVSNKGLPAPIEKTISKTKGQPREPQVYTLPPSQEEMTKNQVSLTCLVKGFYPSDIAVEWESNGQPENNYKTTPPMLDSDGSFFLYSKLTVDKSRWQEGNVFSCSVMHEALHAHYTQKSLSLSP
# light: B2 light with L55E
# Assays:
# [1] = molecular target: T1, recombinant soluble human IL-6 receptor …; assay: SPR Biacore T100, antibody on protein A/G chip, SR344 analyte, pH 7.4, 37 C
# Procedure: (§1) Kinetic analysis of antigen-antibody reactions at pH 7.4 and pH 5.8 was carried out using a Biacore T100™ surface plasmon resonance system (GE Healthcare) for the four types of antibodies prepared: WT-IgG1, H54/L28-IgG1, H170/L82-IgG1, and Fv4-IgG1 (buffer: 10 mM MES (pH 7.4 or pH 5.8), 150 mM NaCl, 0.05% Surfactant P20 (polyoxyethelene sorbitan monolaurate)). The antibodies were bound to a sensor chip on which recomb-protein A/G (Pierce) was immobilized by amine coupling, and SR344 adjusted to an appropriate concentration was injected therein as an analyte. The association with and dissociation from SR344 of each type of antibody were observed on a real-time basis. All the measurements were carried out at 37° C. Association rate constants kₐ (1/Ms) and dissociation rate constants kd (1/s) were calculated using Biacore T100™ Evaluation Software (GE Healthcare), and dissociation constants KD (M) were calculated based on those values (Table 17).
# [2] = molecular target: T1, recombinant soluble human IL-6 receptor …; assay: SPR Biacore T100, antibody on protein A/G chip, SR344 analyte, pH 5.8, 37 C
# Procedure: as §1
# [3] = molecular target: T1, recombinant soluble human IL-6 receptor …; assay: SPR Biacore T100, antibody on protein A/G chip, SR344 analyte, 37 C, ratio of pH 5.8 to pH 7.4
# Procedure: as §1
# [4] = molecular target: T1, recombinant soluble human IL-6 receptor …; assay: SPR Biacore T100, biotinylated SR344 on streptavidin chip (model of membrane-type IL-6 receptor), antibody as analyte, bound at pH 7.4, dissociation at pH 5.8, 37 C
# Procedure: (§2) Binding to the membrane-type IL-6 receptor was evaluated by evaluating binding to the IL-6 receptor immobilized on a sensor chip. SR344 was biotinylated in accordance with a method known among persons with ordinary skill in the art, and the biotinylated SR344 was immobilized on the sensor chip via streptavidin using the affinity between streptavidin and biotin. All the measurements were carried out at 37° C. The mobile phase buffer was 10 mM MES (pH 5.8), 150 mM NaCl and 0.05% TWEEN® 20 (polyoxyethelene sorbitan monolaurate).
# (§3) The pH-dependently-binding clones were injected under the condition of pH 7.4 to allow them to bind to SR344, and then, the pH-dependent dissociation of each clone at the pH of the mobile phase, pH 5.8, was observed. The results are shown in FIG. 21 (results for Fv1-M71, Fv1-M73, Fv3-M71, and Fv3-M73 are shown in FIG. 21, while results for other clones are shown in FIGS. 17 and 19). Analyses were carried out in the same manner as in Example 10 and the pH dependencies of the dissociation rate constants of all of the eleven types of clones are shown in Table 12.
# [5] = molecular target: T1, recombinant soluble human IL-6 receptor …; assay: SPR Biacore T100, antibody captured by anti-IgG gamma chain F(ab)2, SR344 analyte, pH 7.4, 37 C
# Procedure: Kinetic analyses of antigen-antibody reactions at pH 7.4 were carried out on the four types of antibodies, i.e., the humanized PM1 antibody (wild type: WT), and […], H3pI/L73-IgG1, Fv2-IgG1, and Fv4-IgG1 constructed in Examples 2 and 10, by using a Biacore T100™ surface plasmon resonance system (GE Healthcare) (buffer: 10 mM MES (pH 7.4), 150 mM NaCl, 0.05% TWEEN® 20 (polyoxyethelene sorbitan monolaurate)). Each antibody was bound on a sensor chip on which an anti-IgG γ chain specific F(ab)₂ (Pierce) was immobilized by amine coupling, and then, SR344 adjusted to a concentration of 9.8 to 40 nM was injected thereto as an analyte. The association to and dissociation from SR344 were observed on a real-time basis for the pH-dependent-binding clones. All the measurements were carried out at 37° C. Association rate constants kₐ (1/Ms) and dissociation rate constants kd (1/s) were calculated using Biacore T100™ Evaluation Software (GE Healthcare), and dissociation constants KD (M) were calculated on the basis of those values (Table 7).
# The association to and dissociation from SR344 were observed on a real-time basis using the same method as Example 10 for the eleven types of antibodies, humanized PM1 antibody (wild type: WT) and H3pI/L73-IgG1, Fv1-M71, Fv1-M73, Fv2-IgG1, Fv3-M71, Fv3-M73, Fv4-IgG1, Fv4-IgG2, Fv4-M58, and Fv4-M73, constructed as described above. The association rate constants kₐ (1/Ms) and dissociation rate constants kd. (1/s) were calculated by analysis in the same manner, and the dissociation constants KD (M) were calculated on the basis of those values (Table 11).
# [6] = molecular target: T1, recombinant soluble human IL-6 receptor …; assay: SPR Biacore T100, biotinylated SR344 on streptavidin chip (model of membrane-type IL-6 receptor), antibody as analyte, bound at pH 7.4, dissociation at pH 7.4, 37 C
# Procedure: as §2, §3
# [7] = molecular target: T1, recombinant soluble human IL-6 receptor …; assay: SPR Biacore T100, biotinylated SR344 on streptavidin chip (model of membrane-type IL-6 receptor), antibody as analyte, 37 C
# Procedure: as §2, §3
binder,measurement,setting,value
B1,Kd,[1],1.7 nM
same,koff,[1],0.0014 s⁻¹
same,kon,[1],830000 M⁻¹ s⁻¹
same,Kd,[2],1.1 nM
same,koff,[2],0.0027 s⁻¹
same,kon,[2],2.4e+06 M⁻¹ s⁻¹
same,KD (pH 5.8)/KD (pH 7.4),[3],0.7
same,kd (pH 5.8)/kd (pH 7.4),[3],2
B2,koff,[4],0.0053 s⁻¹
same,Kd,[5],1 nM
same,koff,[5],0.00087 s⁻¹
same,kon,[5],850000 M⁻¹ s⁻¹
same,koff,[6],0.00049 s⁻¹
same,kd (pH 5.8)/kd (pH 7.4),[7],10.9
B3,koff,[4],0.0069 s⁻¹
same,Kd,[5],0.97 nM
same,koff,[5],0.00054 s⁻¹
same,kon,[5],550000 M⁻¹ s⁻¹
same,koff,[6],0.00061 s⁻¹
same,kd (pH 5.8)/kd (pH 7.4),[7],11.3
B4,koff,[4],0.0097 s⁻¹
same,Kd,[5],1.1 nM
same,koff,[5],0.00082 s⁻¹
same,kon,[5],780000 M⁻¹ s⁻¹
same,koff,[6],0.00091 s⁻¹
same,kd (pH 5.8)/kd (pH 7.4),[7],10.7
B5,koff,[4],0.0032 s⁻¹
same,Kd,[5],0.91 nM
same,koff,[5],0.00055 s⁻¹
same,kon,[5],610000 M⁻¹ s⁻¹
same,koff,[6],0.00037 s⁻¹
same,kd (pH 5.8)/kd (pH 7.4),[7],8.8
